Results taken from patent US20260274958A1.

Target: VEGF-Fc (in house made by ImmuneOnco)
Sequence (chain, as listed by the source limits assumed): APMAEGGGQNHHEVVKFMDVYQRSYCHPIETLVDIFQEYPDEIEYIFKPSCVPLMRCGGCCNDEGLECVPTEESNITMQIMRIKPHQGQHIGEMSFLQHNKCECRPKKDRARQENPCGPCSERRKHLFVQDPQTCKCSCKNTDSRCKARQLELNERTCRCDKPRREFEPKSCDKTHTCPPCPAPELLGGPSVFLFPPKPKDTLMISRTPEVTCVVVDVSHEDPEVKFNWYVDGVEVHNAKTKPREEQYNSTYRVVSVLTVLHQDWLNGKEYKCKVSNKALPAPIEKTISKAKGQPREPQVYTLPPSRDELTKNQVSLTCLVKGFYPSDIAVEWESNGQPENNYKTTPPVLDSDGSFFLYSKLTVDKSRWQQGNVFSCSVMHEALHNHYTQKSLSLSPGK

- IC50 of inhibition of VEGF-Fc induced CD69 expression (MFI) on Jurkat-CVR cells: 2.38 nM
Substance: VEGFR1D2-Fc (Fc fusion)
